Reference: PMC2709974 (Journal of molecular biology, 2009)

T1: IscR-C92A/C98A/C104A (clusterless) (Escherichia coli, UniProt P0AGK8 1-162, C92A;C98A;C104A)
T1 sequence: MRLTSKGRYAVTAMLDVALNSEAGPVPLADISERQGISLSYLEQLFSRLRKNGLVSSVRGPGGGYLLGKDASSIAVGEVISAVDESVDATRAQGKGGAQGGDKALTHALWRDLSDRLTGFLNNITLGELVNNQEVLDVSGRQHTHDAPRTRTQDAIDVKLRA

T2: IscR wild-type (as purified, about 60% [2Fe-2S] occupied) (Escherichia coli, UniProt P0AGK8 1-162)
T2 sequence: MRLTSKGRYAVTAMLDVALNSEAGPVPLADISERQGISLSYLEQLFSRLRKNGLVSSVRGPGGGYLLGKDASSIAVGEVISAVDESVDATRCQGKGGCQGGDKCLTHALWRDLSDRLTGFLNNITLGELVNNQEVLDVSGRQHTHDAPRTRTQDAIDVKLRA

B1: hyaA site, labeled 30-mer (dsDNA)
DNA 1: ATAAATCCACACAGTTTGTATTGTTTTGTG
DNA 2: CACAAAACAATACAAACTGTGTGGATTTAT
B2: hya -44,-43 (dsDNA)
DNA 1: ATAAATCCACACATGTTGTATTGTTTTGTG
DNA 2: CACAAAACAATACAACATGTGTGGATTTAT
B3: hya -42,-41 (dsDNA)
DNA 1: ATAAATCCACACAGTGGGTATTGTTTTGTG
DNA 2: CACAAAACAATACCCACTGTGTGGATTTAT
B4: hya -46 (dsDNA)
DNA 1: ATAAATCCACATAGTTTGTATTGTTTTGTG
DNA 2: CACAAAACAATACAAACTATGTGGATTTAT
B5: hya -41 (dsDNA)
DNA 1: ATAAATCCACACAGTTAGTATTGTTTTGTG
DNA 2: CACAAAACAATACTAACTGTGTGGATTTAT
B6: hya -36(T to A) (dsDNA)
DNA 1: ATAAATCCACACAGTTTGTATAGTTTTGTG
DNA 2: CACAAAACTATACAAACTGTGTGGATTTAT
B7: Palindrome1 (dsDNA)
DNA 1: ATAAATACATACAGTTTGTATGTATTTGTG
DNA 2: CACAAATACATACAAACTGTATGTATTTAT
B8: hya -42 (dsDNA)
DNA 1: ATAAATCCACACAGTATGTATTGTTTTGTG
DNA 2: CACAAAACAATACATACTGTGTGGATTTAT
B9: hya -36(T to G) (dsDNA)
DNA 1: ATAAATCCACACAGTTTGTATGGTTTTGTG
DNA 2: CACAAAACCATACAAACTGTGTGGATTTAT
B10: hya -44,-42,-41,-40 (dsDNA)
DNA 1: ATAAATCCACACATTGGTTATTGTTTTGTG
DNA 2: CACAAAACAATAACCAATGTGTGGATTTAT
B11: hyaA competitor (dsDNA)
DNA 1: ATAAATCCACACAGTTTGTATTGTTTTGTG
DNA 2: CACAAAACAATACAAACTGTGTGGATTTAT
B12: hya -36(T to C) (dsDNA)
DNA 1: ATAAATCCACACAGTTTGTATCGTTTTGTG
DNA 2: CACAAAACGATACAAACTGTGTGGATTTAT
B13: hya -32,-30 (dsDNA)
DNA 1: ATAAATCCACACAGTTTGTATTGTTATCTG
DNA 2: CAGATAACAATACAAACTGTGTGGATTTAT
B14: Palindrome1-2 (dsDNA)
DNA 1: ATAAATCCATACAGTTTGTATGGATTTGTG
DNA 2: CACAAATCCATACAAACTGTATGGATTTAT
B15: hya -53,-52 (dsDNA)
DNA 1: ATAATCCCACACAGTTTGTATTGTTTTGTG
DNA 2: CACAAAACAATACAAACTGTGTGGGATTAT
B16: hya -40 (dsDNA)
DNA 1: ATAAATCCACACAGTTTCTATTGTTTTGTG
DNA 2: CACAAAACAATAGAAACTGTGTGGATTTAT
B17: hya -39 (dsDNA)
DNA 1: ATAAATCCACACAGTTTGAATTGTTTTGTG
DNA 2: CACAAAACAATTCAAACTGTGTGGATTTAT
B18: hya -35 (dsDNA)
DNA 1: ATAAATCCACACAGTTTGTATTTTTTTGTG
DNA 2: CACAAAAAAATACAAACTGTGTGGATTTAT
B19: hya -55 (A to C) (dsDNA)
DNA 1: ATCAATCCACACAGTTTGTATTGTTTTGTG
DNA 2: CACAAAACAATACAAACTGTGTGGATTGAT
B20: hya -47 (dsDNA)
DNA 1: ATAAATCCACTCAGTTTGTATTGTTTTGTG
DNA 2: CACAAAACAATACAAACTGAGTGGATTTAT
B21: hya -54,-48,-45,-37 (dsDNA)
DNA 1: ATATATCCAGACTGTTTGTAATGTTTTGTG
DNA 2: CACAAAACATTACAAACAGTCTGGATATAT
B22: hya -49 (dsDNA)
DNA 1: ATAAATCCTCACAGTTTGTATTGTTTTGTG
DNA 2: CACAAAACAATACAAACTGTGAGGATTTAT
B23: hya -48(C to T) (dsDNA)
DNA 1: ATAAATCCATACAGTTTGTATTGTTTTGTG
DNA 2: CACAAAACAATACAAACTGTATGGATTTAT
B24: hya -50(C to A) (dsDNA)
DNA 1: ATAAATCAACACAGTTTGTATTGTTTTGTG
DNA 2: CACAAAACAATACAAACTGTGTTGATTTAT
B25: hya -51 (dsDNA)
DNA 1: ATAAATGCACACAGTTTGTATTGTTTTGTG
DNA 2: CACAAAACAATACAAACTGTGTGCATTTAT
B26: hya -31 (dsDNA)
DNA 1: ATAAATCCACACAGTTTGTATTGTTTGGTG
DNA 2: CACCAAACAATACAAACTGTGTGGATTTAT
B27: hya -34/33 (dsDNA)
DNA 1: ATAAATCCACACAGTTTGTATTGAATTGTG
DNA 2: CACAATTCAATACAAACTGTGTGGATTTAT
B28: wild-type IscR (as purified, 35% occupied with [2Fe-2S] cluster) (natural protein, Escherichia coli, UniProt P0AGK8 1-162, looked up)
chain: MRLTSKGRYAVTAMLDVALNSEAGPVPLADISERQGISLSYLEQLFSRLRKNGLVSSVRGPGGGYLLGKDASSIAVGEVISAVDESVDATRCQGKGGCQGGDKCLTHALWRDLSDRLTGFLNNITLGELVNNQEVLDVSGRQHTHDAPRTRTQDAIDVKLRA
B29: apo-IscR (generated from wild-type IscR by treatment with 2,2'-dipyridyl) (natural protein, Escherichia coli, UniProt P0AGK8 1-162, looked up)
chain: MRLTSKGRYAVTAMLDVALNSEAGPVPLADISERQGISLSYLEQLFSRLRKNGLVSSVRGPGGGYLLGKDASSIAVGEVISAVDESVDATRCQGKGGCQGGDKCLTHALWRDLSDRLTGFLNNITLGELVNNQEVLDVSGRQHTHDAPRTRTQDAIDVKLRA
B30: randomized hya site, labeled 30-mer (dsDNA)
DNA 1: ATCATCCGTCTTATGTTAATTATAATGGTG
DNA 2: CACCATTATAATTAACATAAGACGGATGAT
B31: IscR-C92A/C98A/C104A (natural protein, Escherichia coli, UniProt P0AGK8 1-162, looked up)
chain: MRLTSKGRYAVTAMLDVALNSEAGPVPLADISERQGISLSYLEQLFSRLRKNGLVSSVRGPGGGYLLGKDASSIAVGEVISAVDESVDATRAQGKGGAQGGDKALTHALWRDLSDRLTGFLNNITLGELVNNQEVLDVSGRQHTHDAPRTRTQDAIDVKLRA

target: T1, IscR-C92A/C98A/C104A (clusterless); assay: fluorescence anisotropy

In the case of B1, the Kd is reported as 44 ± 3 nM.

target: T1, IscR-C92A/C98A/C104A (clusterless); assay: competition

Going from B2 to B3, the IC50 rises from 89 nM to 300 nM (3.4-fold).

B4 and B5 are within 1.5-fold of each other in IC50: 37 nM for the first, 34 nM for the second.

First: B6
Second: B7
The IC50 of the first is 3.9-fold lower: 52 nM for the first, 202 nM for the second. The first is the more potent here.

Going from B8 to B9, the IC50 falls from 73 nM to 16 nM (4.6-fold). The second is the more potent here.

Compared with B10, B11 is 27-fold lower in IC50: 785 nM for the first, 29 nM for the second.

Going from B12 to B13, the IC50 falls from 134 nM to 18 nM (7.4-fold). The second is the more potent here.

Compared with B14, B15 is 3.3-fold higher in IC50: roughly 10 nM for the first, 33 nM for the second.

Going from B16 to B17, the IC50 rises from 39 nM to 199 nM (5.1-fold).

B18 and B19 are within 1.5-fold of each other in IC50: 505 nM for the first, 394 nM for the second.

Compared with B20, B21 is 2.4-fold lower in IC50: 190 nM for the first, 80 nM for the second.

B22 and B23 are within 1.5-fold of each other in IC50: 44 nM for the first, 48 nM for the second.

B24 and B25 are within 1.5-fold of each other in IC50: 268 nM for the first, 400 nM for the second.

Going from B26 to B27, the IC50 falls from 263 nM to 39 nM (6.7-fold). The second is the more potent here.

Target: the molecule itself
Assay: SEC

B28 and B29 are the same in “stoichiometry N” value: 2 for the first, 2 for the second.

target: T2, IscR wild-type (as purified, about 60% …); assay: fluorescence anisotropy

In the case of B1, the Kd is reported as 34 ± 2 nM.

target: T1, IscR-C92A/C98A/C104A (clusterless); assay: fluorescence anisotropy; remark: another data set of the same source

B30: no binding.

target: T2, IscR wild-type (as purified, about 60% …); assay: fluorescence anisotropy; remark: another data set of the same source

B30: no binding.

Target: the molecule itself
Assay: AUC

For B31, the “stoichiometry N” value was 2.
